# In paper PMC2175296:
# Values joined by “and” are separate entries in the source; they are usually repeats but may differ in a detail not shown here. Identical values can stand only once.
# Target: GST–hEST1A (recombinant full-length human EST1A/SMG6 as N-terminal GST fusion) (human) (UniProt Q86US8)
# Experiment: pull-down
# UniProt Q86US8, sequence (Q86US8 whole entry, the tested form may be a part): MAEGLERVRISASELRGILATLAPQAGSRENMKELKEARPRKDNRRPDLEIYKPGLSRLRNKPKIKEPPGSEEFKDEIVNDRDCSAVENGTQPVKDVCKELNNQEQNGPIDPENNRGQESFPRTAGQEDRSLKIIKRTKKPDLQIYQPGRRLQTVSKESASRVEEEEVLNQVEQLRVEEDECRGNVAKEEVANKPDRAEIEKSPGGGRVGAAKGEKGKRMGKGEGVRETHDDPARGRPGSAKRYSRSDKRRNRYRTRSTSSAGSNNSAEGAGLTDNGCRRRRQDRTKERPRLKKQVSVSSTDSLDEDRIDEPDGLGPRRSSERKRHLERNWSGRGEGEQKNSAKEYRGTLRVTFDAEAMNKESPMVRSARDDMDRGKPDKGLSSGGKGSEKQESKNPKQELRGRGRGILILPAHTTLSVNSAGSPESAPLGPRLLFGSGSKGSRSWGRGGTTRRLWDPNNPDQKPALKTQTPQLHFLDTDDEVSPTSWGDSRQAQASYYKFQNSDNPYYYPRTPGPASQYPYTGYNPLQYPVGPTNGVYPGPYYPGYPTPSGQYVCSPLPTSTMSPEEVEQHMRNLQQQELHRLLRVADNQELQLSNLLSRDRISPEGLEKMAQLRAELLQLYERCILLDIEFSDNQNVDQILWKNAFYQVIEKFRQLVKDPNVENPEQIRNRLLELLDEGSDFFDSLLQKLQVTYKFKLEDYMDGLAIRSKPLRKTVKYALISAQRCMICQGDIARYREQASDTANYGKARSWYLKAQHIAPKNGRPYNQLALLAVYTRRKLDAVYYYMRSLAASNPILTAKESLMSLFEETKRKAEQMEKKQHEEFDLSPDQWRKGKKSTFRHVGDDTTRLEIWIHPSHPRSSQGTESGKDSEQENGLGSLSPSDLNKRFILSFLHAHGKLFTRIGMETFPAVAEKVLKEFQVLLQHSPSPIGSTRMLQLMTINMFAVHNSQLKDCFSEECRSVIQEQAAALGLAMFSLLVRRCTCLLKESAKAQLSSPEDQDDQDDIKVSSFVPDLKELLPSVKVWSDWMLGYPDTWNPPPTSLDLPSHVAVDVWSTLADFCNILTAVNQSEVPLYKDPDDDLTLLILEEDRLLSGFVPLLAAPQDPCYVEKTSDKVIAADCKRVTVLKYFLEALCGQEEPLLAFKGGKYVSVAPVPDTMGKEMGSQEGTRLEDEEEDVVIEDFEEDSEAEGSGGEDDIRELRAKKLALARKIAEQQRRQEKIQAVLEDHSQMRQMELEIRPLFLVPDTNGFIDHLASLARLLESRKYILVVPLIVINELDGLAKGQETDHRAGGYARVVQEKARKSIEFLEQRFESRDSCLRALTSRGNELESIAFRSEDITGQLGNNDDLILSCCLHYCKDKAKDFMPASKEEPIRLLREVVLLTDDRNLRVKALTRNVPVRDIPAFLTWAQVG
substance,measurement,value
"telomerase, expressed and reconstituted in insect cells or in RRL",percent of telomerase activity associated with the beads,10 percent and 30 percent
